94 variants from the supplement of paper PMC10567573 can be followed below.

B1: SMARCE1 (parent)
chain: YHNSPAYLAYINAKSRAEAALEEE
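Also: lentivirally expressed fusions sorted by FACS into six bins by GFP to DsRed ratio, PSI derived from sequencing read proportions per bin multiplied by bin number.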

The series covers variants of B1. Kind of series: protein stability index of a GFP-peptide fusion (GPS, HEK-293T) (PSI 1-6); higher = more stable. Conditions: c terminus: a fixed tail appended.
As for VHNSPAYLAYINAKSRAEAALEEE [Y1V], the protein stability index stood at 4.95. With CHNSPAYLAYINAKSRAEAALEEE [Y1C] the figure was 4.74.

Regarding SHNSPAYLAYINAKSRAEAALEEE [Y1S], the protein stability index came out at 4.85. To NHNSPAYLAYINAKSRAEAALEEE [Y1N] belongs 4.85; to AHNSPAYLAYINAKSRAEAALEEE [Y1A], 5.18; to HHNSPAYLAYINAKSRAEAALEEE [Y1H], 4.6. To LHNSPAYLAYINAKSRAEAALEEE [Y1L] belongs 4.97; to DHNSPAYLAYINAKSRAEAALEEE [Y1D], 5.28; to IHNSPAYLAYINAKSRAEAALEEE [Y1I], 4.78. With EHNSPAYLAYINAKSRAEAALEEE [Y1E] the figure was 5.26.

With THNSPAYLAYINAKSRAEAALEEE [Y1T], the protein stability index amounted to 5.26. With PHNSPAYLAYINAKSRAEAALEEE [Y1P] the figure was 5.16; with FHNSPAYLAYINAKSRAEAALEEE [Y1F], 2.02. With RHNSPAYLAYINAKSRAEAALEEE [Y1R] the figure was 4.86; with WHNSPAYLAYINAKSRAEAALEEE [Y1W], 4.52.

Regarding MHNSPAYLAYINAKSRAEAALEEE [Y1M], the protein stability index was found to be 5.08. Turning to QHNSPAYLAYINAKSRAEAALEEE [Y1Q], the protein stability index stood at 5.29. With GHNSPAYLAYINAKSRAEAALEEE [Y1G] the figure was 4.65.

KHNSPAYLAYINAKSRAEAALEEE [Y1K]: the protein stability index came to 4.96. With YHNSTAYLAYINAKSRAEAALEEE [P5T] the figure was 2.46.

In the case of YHNSNAYLAYINAKSRAEAALEEE [P5N], the protein stability index is 2.56.

As to YHNSCAYLAYINAKSRAEAALEEE [P5C], the protein stability index amounted to 3.56.

In the case of YHNSVAYLAYINAKSRAEAALEEE [P5V], the protein stability index was determined as 3.69.

As to YHNSAAYLAYINAKSRAEAALEEE [P5A], the protein stability index worked out at 2.76.

On to YHNSWAYLAYINAKSRAEAALEEE [P5W], for which the protein stability index stood at 2.98. Regarding YHNSYAYLAYINAKSRAEAALEEE [P5Y], the protein stability index turned out to be 2.31.

As to YHNSQAYLAYINAKSRAEAALEEE [P5Q], the protein stability index is 4.02. With YHNSLAYLAYINAKSRAEAALEEE [P5L] the figure was 2.92; with YHNSEAYLAYINAKSRAEAALEEE [P5E], 1.82; with YHNSHAYLAYINAKSRAEAALEEE [P5H], 3.81. Consider YHNSIAYLAYINAKSRAEAALEEE [P5I], for which the protein stability index is 2.05. To YHNSGAYLAYINAKSRAEAALEEE [P5G] belongs 3.04; to YHNSSAYLAYINAKSRAEAALEEE [P5S], 2.67; to YHNSMAYLAYINAKSRAEAALEEE [P5M], 2.65. In the case of YHNSKAYLAYINAKSRAEAALEEE [P5K], the protein stability index was 2.06.

With YHNSFAYLAYINAKSRAEAALEEE [P5F], the protein stability index was 3.01. With YHNSDAYLAYINAKSRAEAALEEE [P5D], the protein stability index was found to be 2.15. To YHNSRAYLAYINAKSRAEAALEEE [P5R] belongs 2.99; to YHNSPAYLEYINAKSRAEAALEEE [A9E], 1.56. To YHNSPAYLFYINAKSRAEAALEEE [A9F] belongs 1.94; to YHNSPAYLDYINAKSRAEAALEEE [A9D], 1.42. Turning to YHNSPAYLGYINAKSRAEAALEEE [A9G], the protein stability index stood at 2.19.

With YHNSPAYLCYINAKSRAEAALEEE [A9C], the protein stability index worked out at 1.77.

With YLNSPAYLAYINAKSRAEAALEEE [H2L], the protein stability index amounted to 2.09. To YGNSPAYLAYINAKSRAEAALEEE [H2G] belongs 2.65. YRNSPAYLAYINAKSRAEAALEEE [H2R]: the protein stability index is 4.83.

On to YVNSPAYLAYINAKSRAEAALEEE [H2V], for which the protein stability index is 2.84. To YCNSPAYLAYINAKSRAEAALEEE [H2C] belongs 2.12; to YYNSPAYLAYINAKSRAEAALEEE [H2Y], 4.42; to YTNSPAYLAYINAKSRAEAALEEE [H2T], 1.7. To YNNSPAYLAYINAKSRAEAALEEE [H2N] belongs 3.77; to YPNSPAYLAYINAKSRAEAALEEE [H2P], 1.84. With YDNSPAYLAYINAKSRAEAALEEE [H2D] the figure was 4.99. Turning to YQNSPAYLAYINAKSRAEAALEEE [H2Q], the protein stability index stood at 1.7. With YANSPAYLAYINAKSRAEAALEEE [H2A] the figure was 2.37; with YSNSPAYLAYINAKSRAEAALEEE [H2S], 2.5. To YWNSPAYLAYINAKSRAEAALEEE [H2W] belongs 2.66; to YENSPAYLAYINAKSRAEAALEEE [H2E], 4.87.

As to YKNSPAYLAYINAKSRAEAALEEE [H2K], the protein stability index turned out to be 5.07.

With YMNSPAYLAYINAKSRAEAALEEE [H2M], the protein stability index amounted to 1.96. Consider YINSPAYLAYINAKSRAEAALEEE [H2I], for which the protein stability index came out at 2.2. Consider YFNSPAYLAYINAKSRAEAALEEE [H2F], for which the protein stability index was 2.79. With YHNKPAYLAYINAKSRAEAALEEE [S4K] the figure was 1.77; with YHNNPAYLAYINAKSRAEAALEEE [S4N], 2.23; with YHNYPAYLAYINAKSRAEAALEEE [S4Y], 2.09. YHNPPAYLAYINAKSRAEAALEEE [S4P]: the protein stability index stood at 1.91. As for YHNCPAYLAYINAKSRAEAALEEE [S4C], the protein stability index was found to be 1.56.

Turning to YHNQPAYLAYINAKSRAEAALEEE [S4Q], the protein stability index worked out at 3.3. In the case of YHNVPAYLAYINAKSRAEAALEEE [S4V], the protein stability index turned out to be 2.44. With YHNDPAYLAYINAKSRAEAALEEE [S4D] the figure was 3.31; with YHNLPAYLAYINAKSRAEAALEEE [S4L], 2.35. With YHNHPAYLAYINAKSRAEAALEEE [S4H], the protein stability index was 1.91. As to YHNWPAYLAYINAKSRAEAALEEE [S4W], the protein stability index is 2.41. To YHNTPAYLAYINAKSRAEAALEEE [S4T] belongs 2.6; to YHNGPAYLAYINAKSRAEAALEEE [S4G], 2.45. With YHNFPAYLAYINAKSRAEAALEEE [S4F] the figure was 2.04; with YHNEPAYLAYINAKSRAEAALEEE [S4E], 2.89.

As to YHNRPAYLAYINAKSRAEAALEEE [S4R], the protein stability index amounted to 2.19. To YHNIPAYLAYINAKSRAEAALEEE [S4I] belongs 2; to YHNAPAYLAYINAKSRAEAALEEE [S4A], 3.12; to YHNMPAYLAYINAKSRAEAALEEE [S4M], 3.39. YHNSPPYLAYINAKSRAEAALEEE [A6P]: the protein stability index is 1.94. As for YHNSPLYLAYINAKSRAEAALEEE [A6L], the protein stability index amounted to 1.81. To YHNSPVYLAYINAKSRAEAALEEE [A6V] belongs 2.02; to YHNSPSYLAYINAKSRAEAALEEE [A6S], 2.43; to YHNSPWYLAYINAKSRAEAALEEE [A6W], 2.21. With YHNSPNYLAYINAKSRAEAALEEE [A6N] the figure was 1.81; with YHNSPCYLAYINAKSRAEAALEEE [A6C], 1.77; with YHNSPHYLAYINAKSRAEAALEEE [A6H], 2.3. Take YHNSPIYLAYINAKSRAEAALEEE [A6I]: the protein stability index worked out at 2.61.

On to YHNSPFYLAYINAKSRAEAALEEE [A6F], for which the protein stability index was found to be 2.06. To YHNSPKYLAYINAKSRAEAALEEE [A6K] belongs 2.22; to YHNSPQYLAYINAKSRAEAALEEE [A6Q], 2.11. To YHNSPRYLAYINAKSRAEAALEEE [A6R] belongs 2.14.
